Measurements reported in US20190359687A1 (Bayer, published 2019).
Changes are numbered by the printed parent chain. Numbers in names are those of the source.

T1: purified human glycophorin A protein (Sigma, cat # G5017) (human, UniProt P02724 20-150)
T1 construct: mature; also called Sigma hGPA; Sigma GPA
T1 sequence (looked up): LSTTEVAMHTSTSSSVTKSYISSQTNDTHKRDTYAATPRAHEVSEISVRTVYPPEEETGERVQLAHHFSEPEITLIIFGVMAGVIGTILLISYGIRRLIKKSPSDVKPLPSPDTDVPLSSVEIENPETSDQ

T2: human glycophorin A in the red blood cell membrane (human, UniProt P02724 20-150)
T2 construct: whole, on cells; used for intact RBC, isolated RBC membranes and transfected cells; the assay field tells which; also called GPA; hGPA
T2 sequence (looked up): T1 sequence (looked up)

T3: recombinant human GPA ectodomain (human, UniProt P02724 20-91)
T3 construct: also called recombinant hGPA ECD; recGPA
T3 sequence: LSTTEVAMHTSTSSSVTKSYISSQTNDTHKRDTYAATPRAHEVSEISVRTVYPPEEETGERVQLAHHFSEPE

T4: human glycophorin A on human red blood cells or red blood cell membranes (human, UniProt P02724 20-150)
T4 construct: whole, on cells; also called hRBC; human RBC membranes
T4 sequence (looked up): T1 sequence (looked up)

B1: TPP-5348 (Fab, V domains shown)
VH: EVQLVQSGAEVKKPGASVKVSCKASGYTFTTYTIHWVRQAPGQGLEWIGYINPSSDYTRYNPKFKDRVTLTTDKSTSTAYMELRSLRSDDTAVYYCQTGTRDYWGQGTTVTVSS
VL: DIQLTQSPSFLSASVGDRVTITCSAASSVSYIYWFQQKPGKAPKLLIYATSTLPSGVPSRFSGSGSGTEYTLTISSLQPEDFATYYCHQRNSFPFTFGQGTKLEIKR
notes: also called VL: (S49A)
B2: TPP-5350 (Fab, V domains shown)
VH: B1 VH
VL: B1 VL with A49S, P54Q
notes: also called VL: (P54Q)
B3: TPP-7792 scFv with C-terminal 6xHIS tag (scFv)
scFv: DIQLTQSPSFLSASVGDRVTITCRASSSVRYIYWFQQKPGKAPKLLIYATSFRQSGVPSRFSGSGSGTEYTLTISSLQPEDFATYYCHQRNSFPYTFGQGTKLEIKGGGGSGGGGSGGGGSGGGGSEVQLVQSGAEVKKPGASVKVSCKASGYTFTTYAIHWVRQAPGQGLEWMGYINPSSGYTRYNPKFKGRVTMTRDKSTSTAYMELRSLRSDDTAVYYCWTGTRDYWGQGTTVTVSSHHHHHH
B4: TPP-7781 scFv with C-terminal 6xHIS tag (scFv)
scFv: B3 scFv with F52T, R53L, A159T, S180K, Y183W, W223Q
B5: TPP-7783 scFv with C-terminal 6xHIS tag (scFv)
scFv: B3 scFv with Q54R, G192H
B6: TPP-7790 scFv with C-terminal 6xHIS tag (scFv)
scFv: B3 scFv with R53L, G192H
B7: TPP-7782 scFv with C-terminal 6xHIS tag (scFv)
scFv: B3 scFv with A159T, W223Q
B8: TPP-7795 scFv with C-terminal 6xHIS tag (scFv)
scFv: B3 scFv with R30S, R53L, A159T, S180K, Y183W, W223Q
B9: TPP-7797 scFv with C-terminal 6xHIS tag (scFv)
scFv: B3 scFv with A159T, T226R
B10: TPP-7778 scFv with C-terminal 6xHIS tag (scFv)
scFv: B3 scFv with F52T, R53L, G192H, W223Q
B11: TPP-7794 scFv with C-terminal 6xHIS tag (scFv)
scFv: B3 scFv with G192H
B12: TPP-7793 scFv with C-terminal 6xHIS tag (scFv)
scFv: B3 scFv with R30S, F52T, R53L, T157R, A159T
B13: Fab papain 6C12-24 (Fab, V domains shown)
VH: B1 VH
VL: DIQLTQSPSFLSASVGDRVTITCSAASSVSYIYWFQQKPGKAPKLLIYSTSTLPSGVPSRFSGSGSGTEYTLTISSLQPEDFATYYCHQRNSFPFTFGQGTKLEIK
notes: also called parent: Fab 6C12-24

What follows are binders tested against T1, purified human glycophorin A protein … (assay: ELISA, native hGPA).

binding by ELISA relative to parental | Binder
1.62 | B1
1.45 | B2

The binders below were run against T2, human glycophorin A in the red blood … (assay: ELISA, human RBC membranes;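 further: antibodies bound to isolated human red blood cell membrane ghosts coated on 96-well plates, tested 1.5 h at room temperature, bound antibody quantified with a detection antibody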).
Experimental: In order to evaluate binding of antibodies to GPA in the native context of the red blood cell membrane we made use of isolated red blood cell membranes, also called red blood cells ghosts. These membranes are prepared by first isolating red blood cells from citrated whole blood. Citrated whole blood is layered on to Ficol and centrifuged at low speed for 20 minutes to pellet the red blood cells. The supernatant containing plasma and other blood cells is discarded and the red blood cell pellet is subsequently washed 3 times in 10 cell volumes of phosphate buffered saline (PBS). A 10 ml pellet of purified red blood cells is resuspended in 30 ml of cold low osmorality 20 mM phosphate buffer (pH7.4) and incubated for 30 mins to break open the RBC. After Centrifugation at 10,000 rpm for 30 min at 5° C. the hemoglobin containing supernatant is discarded. To the membrane pellet another 30 ml of 20 mM phosphate buffer is added and the sample centrifuged again at 10,000 rpm for 30 min at 5° C. to pellet the membrane fraction. This wash and centrifugation step is repeated another 4 times. The red blood cell membranes are then resuspended in 20 mL of PBS to achieve an equivalent of approximately 2.5E9 cells/mL and stored frozen at −20° C. Binding of antibodies to RBC ghost can be measured by ELISA in which the RBC ghost suspension (5×10⁶ in 100 ul PBS) was added to each well of flat bottom 96-well ELISA microtiter plates (2HB, Immunolon) and the plates incubated overnight at 4° C. The plates were blocked with Starting blocking buffer (Thermo Fisher) for 2 hours at room temperature (RT). Antibodies or other test molecules were added to each well and incubated for 1.5 hours at RT. After 4 washes 100 ul of an appropriate detection antibody was added to each well and incubated for 1 hour at RT. After 4 washes the detection antibody was measured using appropriate detection reagents.

binding by ELISA relative to parental | Binder
1.76 | B1
1.64 | B2

What follows are binders tested against T3, recombinant human GPA ectodomain (assay: ELISA, rec hGPA ectodomain).

binding by ELISA relative to parental | Binder
1.5 | B1
1.7 | B2

What follows are binders tested against T4, human glycophorin A on human red blood … (assay: scFv 7 ug/ml on intact human RBC, unbound scFv by ELISA; pre-dilution).
Experimental: (§1) RBC diluted to 1/10th of normal hematocrit were incubated with the set of “Top 10” purified scFv antibodies at a final concentration of 7 ug/ml for 1 hour at room temperature on a rotating shaker after which a sample was taken and the RBC were pelleted by centrifugation and the supernatant was collected. The remaining RBC suspension was diluted 200-fold in PBS buffer and incubated for a total of 2 hours at room temperature on a rotating shaker and samples were removed at 0, 5 min, 20 min, 1 h and 2 h and the RBC pelleted and the supernatant collected. […] The percentage that remains bound after dilution is an indication of the overall strength of the binding to human RBC.

percentage of input scFv antibody bound [%] | Binder
100 | B3
97 | B4
94 | B5
99 | B6
92 | B7
100 | B8
98 | B9
98 | B10
85 | B11
92 | B12

The binders below were run against T4, human glycophorin A on human red blood … (assay: scFv on intact human RBC, unbound scFv by ELISA; 0 min after 200-fold dilution).
Experimental: as §1

percentage of input scFv antibody bound [%] | Binder
100 | B3
97 | B4
94 | B5
99 | B6
92 | B7
100 | B8
98 | B9
97 | B10
85 | B11
92 | B12

These binders were tested against T4, human glycophorin A on human red blood … (assay: scFv on intact human RBC, unbound scFv by ELISA; 5 min after 200-fold dilution).
Experimental: as §1

percentage of input scFv antibody bound [%] | Binder
99 | B3
94 | B4
94 | B5
99 | B6
91 | B7
85 | B8
98 | B9
88 | B10
85 | B11
92 | B12

Each binder was assayed against T4, human glycophorin A on human red blood … (assay: scFv on intact human RBC, unbound scFv by ELISA; 20 min after 200-fold dilution).
Experimental: as §1

percentage of input scFv antibody bound [%] | Binder
98 | B3
93 | B4
94 | B5
99 | B6
87 | B7
82 | B8
98 | B9
81 | B10
85 | B11
84 | B12

What follows are binders tested against T4, human glycophorin A on human red blood … (assay: scFv on intact human RBC, unbound scFv by ELISA; 60 min after 200-fold dilution).
Experimental: as §1

percentage of input scFv antibody bound [%] | Binder
95 | B3
93 | B4
94 | B5
94 | B6
89 | B7
84 | B8
99 | B9
79 | B10
85 | B11
81 | B12

The binders below were run against T4, human glycophorin A on human red blood … (assay: scFv on intact human RBC, unbound scFv by ELISA; 120 min after 200-fold dilution).
Experimental: as §1

percentage of input scFv antibody bound [%] | Binder
92 | B3
92 | B4
94 | B5
87 | B6
85 | B7
80 | B8
97 | B9
76 | B10
85 | B11
79 | B12

These binders were tested against T2, human glycophorin A in the red blood … (assay: SPR (Biacore), single cycle kinetics, human RBC membranes on L1 sensor, Fab flowed over).
Experimental: Kinetic analysis of the antibody binding to human red blood cell membranes was also performed using surface plasmon resonance (SPR) using a Biacore instrument. In this assay membranes prepared from human red blood cells were attached to a L1 sensor matrix and antibodies were flowed over the RBC membranes.

Kd [nM] | koff [s⁻¹] | kon [M⁻¹ s⁻¹] | Binder
25 | 0.019 | 740000 | B1
130 | 0.048 | 370000 | B13
34 | 0.021 | 610000 | B2
